Data taken from publication PMC6828549 (Nature structural & molecular biology, 2019).

Molecular target: T1, His6-Nxf2 (full length), recombinant from insect cells (Drosophila melanogaster, UniProt Q9VV73 1-841)
T1 sequence: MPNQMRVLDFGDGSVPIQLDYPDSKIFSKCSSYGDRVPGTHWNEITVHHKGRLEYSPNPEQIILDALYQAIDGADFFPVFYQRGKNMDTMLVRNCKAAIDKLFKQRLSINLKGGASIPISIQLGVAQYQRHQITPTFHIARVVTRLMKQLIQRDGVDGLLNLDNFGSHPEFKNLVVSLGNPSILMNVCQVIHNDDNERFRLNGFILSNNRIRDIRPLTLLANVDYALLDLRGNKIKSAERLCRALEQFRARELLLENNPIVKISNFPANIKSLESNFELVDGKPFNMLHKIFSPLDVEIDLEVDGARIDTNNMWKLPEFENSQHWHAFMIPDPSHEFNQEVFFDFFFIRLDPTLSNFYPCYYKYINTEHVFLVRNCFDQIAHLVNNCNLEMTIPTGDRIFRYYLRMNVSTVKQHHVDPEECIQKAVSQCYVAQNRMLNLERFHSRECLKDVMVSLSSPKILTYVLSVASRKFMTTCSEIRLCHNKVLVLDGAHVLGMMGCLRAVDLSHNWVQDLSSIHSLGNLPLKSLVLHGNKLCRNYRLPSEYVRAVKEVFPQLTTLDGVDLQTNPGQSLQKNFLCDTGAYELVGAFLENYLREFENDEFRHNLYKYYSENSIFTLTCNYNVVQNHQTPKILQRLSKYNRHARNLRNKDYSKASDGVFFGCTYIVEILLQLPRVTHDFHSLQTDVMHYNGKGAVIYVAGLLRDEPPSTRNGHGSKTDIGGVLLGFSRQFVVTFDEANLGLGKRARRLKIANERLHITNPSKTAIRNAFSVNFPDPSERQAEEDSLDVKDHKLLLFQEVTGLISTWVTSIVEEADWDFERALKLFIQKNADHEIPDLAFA
Assay: pull-down + SEC

- binding result: binds
B1: Strep-tagged Panoramix fragment (263–446) (domain or fragment)
chain: ASSQNESSKERKLRDTELDYVPVRPDEHFIRPIKFSNLIERRPPQVEFNTVNLSKADKRSLAVARAELVLEQIQQKANKEEPPEFHMVDTICKLPVNESFRNQDCFENPSPICNNMNVVYKFNSTPGTRIDLSKWGLETVPEATKRLLRLLGIDVARLKELQSTVKPSQRILKLKKEQLEQGLA
